Experimental data from publication PMC12394548.

Target: valosin-containing protein (VCP)/p97 (UniProt P55072)
Sequence (P55072 whole entry): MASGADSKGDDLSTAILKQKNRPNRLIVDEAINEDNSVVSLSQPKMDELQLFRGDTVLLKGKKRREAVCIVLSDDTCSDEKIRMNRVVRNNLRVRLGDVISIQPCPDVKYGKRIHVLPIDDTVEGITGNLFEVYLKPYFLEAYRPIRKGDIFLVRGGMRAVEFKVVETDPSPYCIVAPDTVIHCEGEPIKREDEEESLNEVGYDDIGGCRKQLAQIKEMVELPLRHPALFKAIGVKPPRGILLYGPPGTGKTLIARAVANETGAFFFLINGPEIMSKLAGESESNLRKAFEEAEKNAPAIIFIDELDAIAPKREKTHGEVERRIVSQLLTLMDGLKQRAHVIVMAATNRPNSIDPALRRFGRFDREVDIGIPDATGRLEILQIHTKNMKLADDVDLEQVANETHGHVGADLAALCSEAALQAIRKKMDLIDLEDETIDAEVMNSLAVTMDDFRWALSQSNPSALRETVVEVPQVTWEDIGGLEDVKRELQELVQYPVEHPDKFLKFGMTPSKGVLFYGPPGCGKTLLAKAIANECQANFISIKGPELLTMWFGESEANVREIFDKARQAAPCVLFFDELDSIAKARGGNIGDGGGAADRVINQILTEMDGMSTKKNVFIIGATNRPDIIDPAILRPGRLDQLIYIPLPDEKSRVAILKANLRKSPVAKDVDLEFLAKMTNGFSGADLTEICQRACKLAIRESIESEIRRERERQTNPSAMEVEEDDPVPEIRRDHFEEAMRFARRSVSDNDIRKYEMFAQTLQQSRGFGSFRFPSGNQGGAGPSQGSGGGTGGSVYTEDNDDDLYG

B1: VCPIP1^(ΔVCPID ΔUBX) (aa Δ589-666, Δ773-852) (enzyme)
chain: MSQPPPPPPPLPPPPPPPEAPQTPSSLASAAASGGLLKRRDRRILSGSCPDPKCQARLFFPASGSVSIECTECGQRHEQQQLLGVEEVTDPDVVLHNLLRNALLGVTGAPKKNTELVKVMGLSNYHCKLLSPILARYGMDKQTGRAKLLRDMNQGELFDCALLGDRAFLIEPEHVNTVGYGKDRSGSLLYLHDTLEDIKRANKSQECLIPVHVDGDGHCLVHAVSRALVGRELFWHALRENLKQHFQQHLARYQALFHDFIDAAEWEDIINECDPLFVPPEGVPLGLRNIHIFGLANVLHRPIILLDSLSGMRSSGDYSATFLPGLIPAEKCTGKDGHLNKPICIAWSSSGRNHYIPLVGIKGAALPKLPMNLLPKAWGVPQDLIKKYIKLEEDGGCVIGGDRSLQDKYLLRLVAAMEEVFMDKHGIHPSLVADVHQYFYRRTGVIGVQPEEVTAAAKKAVMDNRLHKCLLCGALSELHVPPEWLAPGGKLYNLAKSTHGQLRTDKNYSFPLNNLVCSYDSVKDVLVPDYGMSNLTACNWCHGTSVRKVRGDGSIVYLDGDRTNSRSTGGKCGCGFKHFWDGKEYDNLNIDGAHAQRVGDVQGQESESQLPTKIILTGQKTKTLHKEELNMSKTERTIQQNITEQASVMQKRKTEKLKQEQKGQPRTVSPSTIRDGPSSAPATPTKAPYSPTTSSKAEGGQSAAAHSAHTVKQEDIAVTGKLSSKELQEQAEKEMYSLCLLATLMGEDVWSYAKGLPHMFQQGGVFYSIMKKTMGMADGKHCTFPHLPGKTFVYNASEDRLELCVDAAGHFPIGPDVEDLVKEAVSQVRAEATTRSRESSPSHGLLKLGSGGVVKKKSEQLHNVTAFQGKGHSLGTASGNPHLDPRARETSVVRKHNTGTDFSNSSTKTEPSVFTASSSNSELIRIAPGVVTMRDGRQLDPDLVEAQRKKLQEMVSSIQASMDRHLRDQSTEQSPSDLPQRKTEVVSSSAKSGSLQTGLPESFPLTGGTENLNTETTDGCVADALGAAFATRSKAQRGNSVEELEEMDSQDAEMTNTTEPMDHS
modifications: BODIPY, non-site-selective labelling, DOL 0.44, in the TR-FRET binding assay
- initial velocity of Ub-Rho hydrolysis by VCPIP1^(ΔVCPID ΔUBX) (62.5 nM enzyme) in the presence of VCP (v0 = 656.0 RFU/min without VCP); no effect of VCP: 562 RFU/min

B2: VCPIP1^ΔUBX (aa Δ773-852) (enzyme)
chain: MSQPPPPPPPLPPPPPPPEAPQTPSSLASAAASGGLLKRRDRRILSGSCPDPKCQARLFFPASGSVSIECTECGQRHEQQQLLGVEEVTDPDVVLHNLLRNALLGVTGAPKKNTELVKVMGLSNYHCKLLSPILARYGMDKQTGRAKLLRDMNQGELFDCALLGDRAFLIEPEHVNTVGYGKDRSGSLLYLHDTLEDIKRANKSQECLIPVHVDGDGHCLVHAVSRALVGRELFWHALRENLKQHFQQHLARYQALFHDFIDAAEWEDIINECDPLFVPPEGVPLGLRNIHIFGLANVLHRPIILLDSLSGMRSSGDYSATFLPGLIPAEKCTGKDGHLNKPICIAWSSSGRNHYIPLVGIKGAALPKLPMNLLPKAWGVPQDLIKKYIKLEEDGGCVIGGDRSLQDKYLLRLVAAMEEVFMDKHGIHPSLVADVHQYFYRRTGVIGVQPEEVTAAAKKAVMDNRLHKCLLCGALSELHVPPEWLAPGGKLYNLAKSTHGQLRTDKNYSFPLNNLVCSYDSVKDVLVPDYGMSNLTACNWCHGTSVRKVRGDGSIVYLDGDRTNSRSTGGKCGCGFKHFWDGKEYDNLPEAFPITLEWGGRVVRETVYWFQYESDSSLNSNVYDVAMKLVTKHFPGEFGSEILVQKVVHTILHQTAKKNPDDYTPVNIDGAHAQRVGDVQGQESESQLPTKIILTGQKTKTLHKEELNMSKTERTIQQNITEQASVMQKRKTEKLKQEQKGQPRTVSPSTIRDGPSSAPATPTKAPYSPTTSSKAEGGQSAAAHSAHTVKQEDIAVTGKLSSKELQEQAEKEMYSLCLLATLMGEDVWSYAKGLPHMFQQGGVFYSIMKKTMGMADGKHCTFPHLPGKTFVYNASEDRLELCVDAAGHFPIGPDVEDLVKEAVSQVRAEATTRSRESSPSHGLLKLGSGGVVKKKSEQLHNVTAFQGKGHSLGTASGNPHLDPRARETSVVRKHNTGTDFSNSSTKTEPSVFTASSSNSELIRIAPGVVTMRDGRQLDPDLVEAQRKKLQEMVSSIQASMDRHLRDQSTEQSPSDLPQRKTEVVSSSAKSGSLQTGLPESFPLTGGTENLNTETTDGCVADALGAAFATRSKAQRGNSVEELEEMDSQDAEMTNTTEPMDHS
modifications: BODIPY, non-site-selective labelling, DOL 0.54, in the TR-FRET binding assay
- initial velocity of Ub-Rho hydrolysis by VCPIP1^ΔUBX (62.5 nM enzyme) in the presence of VCP (v0 = 754.0 RFU/min without VCP); no effect of VCP: 733 RFU/min
